The values that follow come from the supplement of paper PMC10567573.

± gives the standard deviation.

A short description of the data set: protein stability index of a GFP-peptide fusion (GPS, HEK-293T) (PSI 1-6); higher = more stable.
Setting [1] is: treatment: DMSO, c terminus: a fixed tail appended.
Setting [2] is: treatment: MLN4924 1 uM, 8 h, c terminus: a fixed tail appended.
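Note: 24-mer peptide tiles fused after GFP, lentivirally expressed, FACS-sorted into six equal bins by GFP/DsRed ratio, decoded by Illumina sequencing, PSI is the read-weighted mean bin number.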

As to PLVYKAIQQGINAVNQEAMNNAQR [ACSBG2], the protein stability index under setting [1] stood at 3.331 ± 0.031 and the protein stability index under setting [2] was found to be 3.45 ± 0.23.

For VYPRPPEPREFSSRNFGVRNQGNF [ZC2HC1C], the protein stability index by setting is: under setting [1], 3.24 ± 0.15; under setting [2], 3.24 ± 0.29.

DLPVVQGSSSFSLKGYPSLMRSQS [TRIM29]: the protein stability index reads like this: under setting [1], 3.03 ± 0.25; under setting [2], 3.3 ± 0.24.

Turning to DMKVNPIQGLASKWDYEKNEWKK [COX4I1], the protein stability index was 4.45 ± 0.27 (treatment: DMSO, c terminus: native) and 4.72 ± 0.24 (treatment: MLN4924 1 uM, 8 h, c terminus: native).

With HTEVVRDLTFAPDGSLILVSASRD [WSB1], the protein stability index came out at 3.45 ± 0.054 under setting [1] and 3.53 ± 0.27 under setting [2].

For the sequence NIYVHDLLTFQQITTVSKAKGASL [VPS39], the protein stability index by setting is: under setting [1], 2.32 ± 0.3; under setting [2], 2.27 ± 0.34.

For the sequence QAPIAAVLLMHMPAEQAFWCLVQI [TBC1D10A], the protein stability index reads like this: under setting [1], 3.25 ± 0.93; under setting [2], 3.06 ± 0.31.

For the sequence VTSTSQSPHSPDSSQSSLAQEEEE [DDIT3], the protein stability index was determined as 5.53 ± 0.1 under setting [1] and 5.64 ± 0.12 under setting [2].

As for FIDTYSDVGRYIDHYAAIKKAWDD [FBXO3], the protein stability index worked out at 2.6 ± 0.61 under setting [1] and 2.37 ± 0.77 under setting [2].

On to KNDVFICGGYNGEVILGDIWKLNL [KLHDC10], for which the protein stability index was determined as 2.6 ± 0.84 under setting [1] and 2.33 ± 0.74 under setting [2].

Take TKVRKQEIIKVTEQLIEAISNGDF [CAMK2A]: the protein stability index reads like this: under setting [1], 2.38 ± 0.32; under setting [2], 2.66 ± 0.42.

For the sequence IPANVSNCNWFCEGSFNGSEKETM [KRT33B], the protein stability index runs as follows: under setting [1], 4.19 ± 0.15; under setting [2], 4.07 ± 0.3.

FWQTQYNNMNAVNLFFAWIKIFKY [PKD2L1]: the protein stability index is 2.38 ± 0.38 under setting [1] and 2.19 ± 0.52 under setting [2].

Sequence AEHWKHKKEESGRERKKNWGGQED [PBXIP1] had a protein stability index under setting [1] of 5.24 ± 0.37 and a protein stability index under setting [2] of 4.96 ± 0.4.

PVGFGRRTDPNGDYIRRYLPVLRG [CRY1]: the protein stability index turned out to be 3.14 ± 0.2 under setting [1] and 3.17 ± 0.39 under setting [2].

Take SSGCFMEYLENQVIKDKDDSVDAQ [RNF180]: the protein stability index is 4.59 ± 0.21 under setting [1] and 4.63 ± 0.19 under setting [2].

The sequence FIPSLKYVQWSLPFIVFGATGLTS [SLC22A15] gave a protein stability index under setting [1] of 3.14 ± 0.22 and a protein stability index under setting [2] of 3.33 ± 0.36.

Take NCIHRDIKPENILITKQGIIKICD [CDKL4]: the protein stability index by setting is: under setting [1], 2.51 ± 0.39; under setting [2], 3.28 ± 0.24.

On to KVSGNRCASPVTGPGSKRDAHFCA [ESR2], for which the protein stability index by setting is: under setting [1], 2.76 ± 0.44; under setting [2], 2.79 ± 0.16.

Regarding PELLVGDTQYGSSVDIWAIGCVFA [CDKL4], the protein stability index reads like this: under setting [1], 2.14 ± 0.57; under setting [2], 2.73 ± 0.98.

For the sequence KENREEARFQDKQYSSHHTAEKRK [CHGB], the protein stability index reads like this: under setting [1], 5.21 ± 0.41; under setting [2], 4.89 ± 0.34.

Regarding NGSISSAGNSSRNSSQSSSDGSCK [BTBD10], the protein stability index reads like this: under setting [1], 5.01 ± 0.23; under setting [2], 5.2 ± 0.16.

For AIPITELTKSQVQDKPYKCTDCGK [ZNF8], the protein stability index is 4.25 ± 0.2 under setting [1] and 4.3 ± 0.21 under setting [2].

LLEESDGEGEPGQGEGPEAGDAEV [NOP53] registered a protein stability index under setting [1] of 5.62 ± 0.22 and a protein stability index under setting [2] of 5.61 ± 0.14.

As to EIDIFNPQTVGVGRARFTTYEVRM [SNX12], the protein stability index runs as follows: under setting [1], 2.36 ± 0.069; under setting [2], 2.57 ± 0.44.

On to TSIEPSKSSIIPFRALKRPLQFLG [ZER1], for which the protein stability index runs as follows: under setting [1], 2.42 ± 0.38; under setting [2], 2.22 ± 0.16.

As to STATSITLTWDSGNPEPVSYYIIQ [PTPRD], the protein stability index turned out to be 2.83 ± 0.59 under setting [1] and 2.9 ± 0.65 under setting [2].

Take LEVPAGSRLNLTGLGYFSCHSHTV [CCDC3]: the protein stability index is, setting by setting: under setting [1], 2.57 ± 0.33; under setting [2], 2.2 ± 0.25.

For the sequence FTAALEHCRENAHDKIRPISSIGQ [SPACA9], the protein stability index was 3.3 ± 0.088 under setting [1] and 3.41 ± 0.25 under setting [2].

On to VGQDNGAVMEFHVSEDFNKMNFIK [WDFY1], for which the protein stability index reads like this: under setting [1], 3.29 ± 1.1; under setting [2], 3.14 ± 0.36.

For the sequence AGAGWWVGAAYASLRRRGASAAAR [TRIM14], the protein stability index under setting [1] was 2.88 ± 0.22.

AGRQSVSGRKNSTSKDLVTLGASS [C6orf223]: the protein stability index stood at 4.4 ± 0.16 under setting [1] and 4.49 ± 0.13 under setting [2].

As for HSRVAKPHQREKIDKEIELHRILH [PLK2], the protein stability index is, setting by setting: under setting [1], 3.42 ± 0.4; under setting [2], 3.44 ± 0.07.

Regarding INQLTFIMDANQTYLVSERLEREE [FAF2], the protein stability index is 3.17 ± 0.15 under setting [1] and 3.15 ± 0.21 under setting [2].

On to TFGFITMTPQLFINYKLKSVAHLP [CLPTM1], for which the protein stability index reads like this: under setting [1], 2.59 ± 0.47; under setting [2], 2.92 ± 0.86.

For the sequence CWLPLLAGLLPPVPAQKFSALTFL [SMOC2], the protein stability index runs as follows: under setting [1], 3.54 ± 0.15; under setting [2], 2.82 ± 0.53.

For the sequence TLAALLLNRSESDIRYLLGYVSQQ [FEM1B], the protein stability index was 2.39 ± 0.42 under setting [1] and 2.52 ± 0.61 under setting [2].

Regarding TLNKCAVMKLEISPHRKRSDDSDE [DLC1], the protein stability index under setting [1] worked out at 4.11 ± 0.31 and the protein stability index under setting [2] is 4.29 ± 0.094.

Take SQPATPTPLQSRTSIVQAAAGGVP [PDLIM7]: the protein stability index came out at 4.6 ± 0.25 under setting [1] and 4.6 ± 0.19 under setting [2].

Consider RSWFPSAPGSASSSKVSGVLKKLA [YJU2B], for which the protein stability index came to 2.61 ± 0.27 under setting [1] and 2.5 ± 0.38 under setting [2].

Take RADLVFIIDSSRSVNTHDYAKVKE [MATN2]: the protein stability index by setting is: under setting [1], 2.51 ± 0.32; under setting [2], 2.72 ± 0.34.

Consider DFDGKLKDIAGEFKEQLQALIPYV [ATL3], for which the protein stability index by setting is: under setting [1], 2.38 ± 0.47; under setting [2], 2.94 ± 0.31.

On to EKPIGSCVTNPCGPRSRCGPCNTF [KRT33B], for which the protein stability index runs as follows: under setting [1], 2.34 ± 0.24; under setting [2], 2.52 ± 0.27.

For NHGLVSVGESVEEAFYYIHNLVVA [ADD1], the protein stability index runs as follows: under setting [1], 2.24 ± 0.31; under setting [2], 2.1 ± 0.58.

Turning to SVWVLRDFPEDGLKIFTEDLPEVE [VPS39], the protein stability index is 3.55 ± 0.34 under setting [1] and 3.59 ± 0.33 under setting [2].

In the case of SYSLSRKKIVHYTCFDQRKRANAA [CDC14A], the protein stability index was found to be 2.88 ± 0.28 under setting [1] and 3.05 ± 0.12 under setting [2].

Turning to ELGQAVEVIYPQHSKLTDREKTNI [DENND6A], the protein stability index by setting is: under setting [1], 3.69 ± 0.35; under setting [2], 4.28 ± 0.21.

In the case of LTVLQRLDVWLSGGNDLCVWNRKL [WDR41], the protein stability index runs as follows: under setting [1], 2.17 ± 1; under setting [2], 2.39 ± 0.32.

Turning to KTMQSEETRVWHRRDGKWQNVHFH [CAMK2D], the protein stability index turned out to be 2.85 ± 0.15 under setting [1] and 3.14 ± 0.16 under setting [2].

Regarding SSFSRPLGYPYVNSVSSHASSPYI [DLX1], the protein stability index reads like this: under setting [1], 2.62 ± 0.18; under setting [2], 2.79 ± 0.51.

On to KVQNECPGITRVYSIGRSVEGRHL [CPN1], for which the protein stability index reads like this: under setting [1], 3.08 ± 0.22; under setting [2], 3.29 ± 0.5.

In the case of EGVPSVFNPPPSRPLQVNTADHRI [FAF2], the protein stability index reads like this: under setting [1], 4.421 ± 0.042; under setting [2], 4.503 ± 0.037.

Regarding PTGEGSISHEEQKSVRLARELESR [CHCHD6], the protein stability index turned out to be 5.33 ± 0.17 under setting [1] and 5.35 ± 0.33 under setting [2].
